Substitutions are numbered along the chain they refer to. Numbers in names are those of the source.
T1: IL10Rα-Fc fusion protein (human, UniProt Q13651 22-235)
T1 construct: Bought from R&D Systems; also called human IL10Rα
T1 sequence (looked up): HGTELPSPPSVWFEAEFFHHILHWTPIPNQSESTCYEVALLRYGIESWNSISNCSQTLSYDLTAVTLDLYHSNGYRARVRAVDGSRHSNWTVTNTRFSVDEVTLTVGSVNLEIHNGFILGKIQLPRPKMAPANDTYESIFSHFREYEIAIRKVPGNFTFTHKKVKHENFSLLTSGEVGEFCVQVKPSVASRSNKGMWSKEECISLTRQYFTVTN

B1: PHS102.HSYPP31F (antibody, human IgG1, kappa, N297A, V domains shown)
VH: EVQLVESGGGLVQPGGSLRLSCAASGFTIEDSYIHWVRQAPGKGLEWVARIDPITGLTHYADSVKGRFTISADTSKNTAYLQMNSLRAEDTAVYYCARAFSWFPDYWGQGTLVTVSS
VL: DIQMTQSPSSLSASVGDRVTITCRAGQDVYKAVAWYQQKPGKAPKLLIYWSTNLYSGVPSRFSGSGSGTDFTLTISSLQPEDFATYYCQQIMEPPVTFGQGTKVEIKR
notes: full-length human IgG1-N297A / kappa
B2: PHS102.HSYPP411C (antibody, human IgG1, kappa, N297A, V domains shown)
VH: EVQLVESGGGLVQPGGSLRLSCAASGFTIDNTYIHWVRQAPGKGLEWVARIDPANGKTTYADSVKGRFTISADTSKNTANLQMNSLRAEDTAVYYCARSFSWWADYWGQGTLVTVSS
VL: B1 VL with I91F, M92N, E93L, P94Q, V96T
notes: as for B1
B3: PHS102 (antibody, human IgG1, kappa, N297A)
heavy: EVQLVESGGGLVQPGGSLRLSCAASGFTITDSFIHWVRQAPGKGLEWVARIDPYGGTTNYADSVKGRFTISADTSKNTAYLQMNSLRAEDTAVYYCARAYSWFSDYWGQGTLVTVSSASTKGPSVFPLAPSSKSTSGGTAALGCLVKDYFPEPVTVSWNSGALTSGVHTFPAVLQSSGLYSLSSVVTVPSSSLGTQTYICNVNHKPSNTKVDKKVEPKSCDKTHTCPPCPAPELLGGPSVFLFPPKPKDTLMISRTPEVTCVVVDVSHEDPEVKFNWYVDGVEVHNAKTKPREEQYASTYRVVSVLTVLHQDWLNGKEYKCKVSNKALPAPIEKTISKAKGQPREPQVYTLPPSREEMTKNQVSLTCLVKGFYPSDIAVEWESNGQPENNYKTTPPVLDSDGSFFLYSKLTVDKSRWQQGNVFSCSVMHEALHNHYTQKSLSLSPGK
light: DIQMTQSPSSLSASVGDRVTITCRAGQDVYKAVAWYQQKPGKAPKLLIYWSTNLYSGVPSRFSGSGSGTDFTLTISSLQPEDFATYYCQQGSTWPLTFGQGTKVEIKRTVAAPSVFIFPPSDEQLKSGTASVVCLLNNFYPREAKVQWKVDNALQSGNSQESVTEQDSKDSTYSLSSTLTLSKADYEKHKVYACEVTHQGLSSPVTKSFNRGEC
B4: PHS102.YT7A/IL10 (antibody, human IgG1, kappa, N297A)
heavy: not shown
light: B3 light with G91Y, S92G, T93I, W94A, L96P
B5: PHS102.YT7H/IL10 (antibody, human IgG1, kappa, N297A)
heavy: not shown
light: B3 light with G91H, S92G, T93N, W94A, L96I
B6: PHS102.YT7A (antibody, human IgG1, kappa, N297A)
heavy: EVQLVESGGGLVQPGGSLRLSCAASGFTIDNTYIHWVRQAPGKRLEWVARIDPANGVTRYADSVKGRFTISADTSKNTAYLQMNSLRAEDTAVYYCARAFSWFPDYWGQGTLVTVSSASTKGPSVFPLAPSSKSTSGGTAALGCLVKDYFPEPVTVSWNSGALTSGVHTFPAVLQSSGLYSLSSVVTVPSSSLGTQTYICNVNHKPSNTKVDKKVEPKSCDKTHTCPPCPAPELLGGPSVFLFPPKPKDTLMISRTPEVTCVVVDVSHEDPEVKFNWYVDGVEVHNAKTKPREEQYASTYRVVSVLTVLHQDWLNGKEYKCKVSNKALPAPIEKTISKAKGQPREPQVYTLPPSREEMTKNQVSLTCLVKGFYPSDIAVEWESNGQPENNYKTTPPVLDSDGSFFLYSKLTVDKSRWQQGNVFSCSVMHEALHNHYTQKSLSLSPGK
light: B3 light with G91Y, S92G, T93I, W94A, L96P
notes: as for B1
B7: PHS102/IL10 (antibody, human IgG1, kappa, N297A)
heavy: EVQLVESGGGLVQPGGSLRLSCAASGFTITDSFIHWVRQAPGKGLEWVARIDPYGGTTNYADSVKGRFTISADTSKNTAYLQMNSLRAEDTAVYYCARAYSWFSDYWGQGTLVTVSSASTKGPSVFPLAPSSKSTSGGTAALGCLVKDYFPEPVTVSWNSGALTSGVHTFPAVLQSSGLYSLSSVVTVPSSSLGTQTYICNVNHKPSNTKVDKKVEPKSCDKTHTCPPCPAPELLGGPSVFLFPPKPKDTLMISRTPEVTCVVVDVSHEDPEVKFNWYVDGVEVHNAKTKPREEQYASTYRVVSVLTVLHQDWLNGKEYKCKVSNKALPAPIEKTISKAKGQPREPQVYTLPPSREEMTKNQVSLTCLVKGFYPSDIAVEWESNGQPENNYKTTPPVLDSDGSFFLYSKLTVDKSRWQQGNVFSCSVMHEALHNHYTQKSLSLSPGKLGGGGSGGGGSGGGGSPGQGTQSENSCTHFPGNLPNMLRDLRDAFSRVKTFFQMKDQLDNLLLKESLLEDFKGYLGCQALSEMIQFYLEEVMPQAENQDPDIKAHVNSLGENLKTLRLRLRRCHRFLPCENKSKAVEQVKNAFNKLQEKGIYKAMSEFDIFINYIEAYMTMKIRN
light: B3 light
B8: PHS102.YT7H (antibody, human IgG1, kappa, N297A)
heavy: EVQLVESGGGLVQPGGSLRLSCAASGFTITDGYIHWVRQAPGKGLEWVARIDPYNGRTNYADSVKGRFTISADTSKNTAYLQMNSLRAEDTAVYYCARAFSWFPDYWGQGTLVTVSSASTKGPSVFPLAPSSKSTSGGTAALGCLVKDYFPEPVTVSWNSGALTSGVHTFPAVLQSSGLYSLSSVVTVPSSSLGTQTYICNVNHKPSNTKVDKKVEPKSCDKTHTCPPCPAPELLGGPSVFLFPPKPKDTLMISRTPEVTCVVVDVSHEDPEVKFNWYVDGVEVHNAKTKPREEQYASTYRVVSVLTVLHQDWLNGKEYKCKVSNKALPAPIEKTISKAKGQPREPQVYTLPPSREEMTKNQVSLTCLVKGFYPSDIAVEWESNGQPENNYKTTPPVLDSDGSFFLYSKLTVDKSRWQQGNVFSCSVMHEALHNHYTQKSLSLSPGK
light: B3 light with G91H, S92G, T93N, W94A, L96I
notes: as for B1
B9: PHS219/IL10 (antibody, human IgG1, kappa, N297A)
heavy: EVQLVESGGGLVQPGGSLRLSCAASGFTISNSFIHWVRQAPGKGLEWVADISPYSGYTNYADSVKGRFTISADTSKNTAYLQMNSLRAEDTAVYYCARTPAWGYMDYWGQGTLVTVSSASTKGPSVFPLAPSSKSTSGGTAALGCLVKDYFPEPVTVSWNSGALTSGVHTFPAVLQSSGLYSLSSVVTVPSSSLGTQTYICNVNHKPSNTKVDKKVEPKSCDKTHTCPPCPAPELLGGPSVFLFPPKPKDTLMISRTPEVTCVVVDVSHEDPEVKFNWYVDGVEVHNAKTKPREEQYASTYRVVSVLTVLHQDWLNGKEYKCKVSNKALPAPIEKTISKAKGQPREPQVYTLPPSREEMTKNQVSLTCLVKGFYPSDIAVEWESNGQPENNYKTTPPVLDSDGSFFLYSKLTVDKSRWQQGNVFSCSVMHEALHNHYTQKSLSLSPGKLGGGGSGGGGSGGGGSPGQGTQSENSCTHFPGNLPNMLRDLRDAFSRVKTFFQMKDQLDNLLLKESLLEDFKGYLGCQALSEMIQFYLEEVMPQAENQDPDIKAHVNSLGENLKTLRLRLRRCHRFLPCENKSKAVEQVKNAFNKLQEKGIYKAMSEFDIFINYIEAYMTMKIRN
light: DIQMTQSPSSLSASVGDRVTITCRASQDVSSSVAWYQQKPGKAQKLLISWATSLYSGVPSRFSGSGSGTDFTLTISSLQPEDFATYYCQQYNNFPYTFGQGTKVEIKRTVAAPSVFIFPPSDEQLKSGTASVVCLLNNFYPREAKVQWKVDNALQSGNSQESVTEQDSKDSTYSLSSTLTLSKADYEKHKVYACEVTHQGLSSPVTKSFNRGEC
B10: Atezolizumab/IL10 (antibody)
heavy: not shown
light: DIQMTQSPSSLSASVGDRVTITCRASQDVSTAVAWQQKPGKAPKLLIYSASFLYSGVPSRFSGSGSGTDFTLTISSLQPEDFATYYCQQYLYHPATFGQGTKVEIKRRTVAAPSVFIFPPSDEQLKSGTASVVCLLNNFYPREAKVQWKVDNALQSGNSQESVTEQDSKDSTYSLSSTLTLSKADYEKHKVYACEVTHQGLSSPVTKSFNRGEC
B11: Durvalumab/IL10 (antibody, human IgG1, kappa, N297A)
heavy: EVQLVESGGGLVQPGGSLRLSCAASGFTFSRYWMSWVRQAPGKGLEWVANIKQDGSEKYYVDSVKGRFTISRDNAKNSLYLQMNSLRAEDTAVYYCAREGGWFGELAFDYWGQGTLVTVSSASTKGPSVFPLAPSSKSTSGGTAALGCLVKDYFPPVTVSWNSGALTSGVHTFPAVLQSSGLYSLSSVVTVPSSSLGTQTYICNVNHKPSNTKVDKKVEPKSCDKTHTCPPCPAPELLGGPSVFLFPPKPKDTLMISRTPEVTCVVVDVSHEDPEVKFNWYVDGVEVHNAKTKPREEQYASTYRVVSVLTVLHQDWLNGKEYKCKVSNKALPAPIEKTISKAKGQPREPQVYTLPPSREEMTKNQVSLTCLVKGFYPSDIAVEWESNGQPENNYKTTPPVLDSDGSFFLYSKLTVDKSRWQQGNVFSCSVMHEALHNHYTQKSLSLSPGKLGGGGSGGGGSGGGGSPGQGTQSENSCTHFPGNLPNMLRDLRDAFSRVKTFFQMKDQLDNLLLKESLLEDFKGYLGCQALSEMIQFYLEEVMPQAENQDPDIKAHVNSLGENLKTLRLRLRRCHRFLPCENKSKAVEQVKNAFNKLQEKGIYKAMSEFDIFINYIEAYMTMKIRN
light: EIVLTQSPGTLSLSPGERATLSCRASQRVSSSYLAWYQQKPGQAPRLLIYDASSRATGIPDRFSGSGSGTDFTLTISRLEPEDFAWYYCQQYGSLPWTFGQGTKVEIKRTVAAPSVFIFPPSDEQLKSGTASVVCLLNNFYPREAKVQWKVDNALQSGNSQESVTEQDSKDSTYSLSSTLTLSKADYEKHKVYACEVTHQGLSSPVTKSFNRGEC
B12: Avelumab/IL10 (antibody, human IgG1, lambda)
heavy: not shown
light: QSALTQPASVSGSPGQSITISCTGTSSDVGGYNYVSWYQQHPGKAPKLMIYDVSNRPSGVSNRFSGSKSGNTASLTISGLQAEDEADYYCSSYTSSSTRVFGTGTKVTVLGQPKANPTVTLFPPSSEELQANKATLVCLISDFYPGAVTVAWKADGSPVKAGVETTKPSKQSNNKYAASSYLSLTPEQWKSHRSYSCQVTHEGSTVEKTVAPTECS
B13: Atezolizumab (antibody)
heavy: not shown
light: B10 light
notes: also called YW243.55.S70; MPDL3280A
B14: PHS219 (antibody, human IgG1, kappa, N297A)
heavy: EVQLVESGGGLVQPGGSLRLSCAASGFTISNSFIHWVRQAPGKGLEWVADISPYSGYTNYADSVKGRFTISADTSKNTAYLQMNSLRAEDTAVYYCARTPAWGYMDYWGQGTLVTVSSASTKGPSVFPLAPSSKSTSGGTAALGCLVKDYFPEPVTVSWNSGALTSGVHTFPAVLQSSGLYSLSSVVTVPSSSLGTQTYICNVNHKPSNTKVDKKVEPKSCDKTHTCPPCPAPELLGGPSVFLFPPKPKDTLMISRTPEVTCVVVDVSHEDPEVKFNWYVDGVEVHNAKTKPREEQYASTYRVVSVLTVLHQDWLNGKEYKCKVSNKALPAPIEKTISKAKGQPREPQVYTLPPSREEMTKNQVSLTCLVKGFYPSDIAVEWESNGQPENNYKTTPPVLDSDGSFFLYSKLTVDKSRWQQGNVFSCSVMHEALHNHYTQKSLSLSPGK
light: B9 light
B15: PHS102.YT10H (antibody, human IgG1, kappa, N297A, V domains shown)
VH: B1 VH with E30S, S32A, D52E, I54L, T55S, L57R, H59D, P104M
VL: B1 VL with T74M, I91H, M92D, E93K, P94T, V96T
notes: as for B1
B16: PHS102.YP11F (antibody, human IgG1, kappa, N297A, V domains shown)
VH: B2 VH with A54V, N55S, K57R, T59R, N80D, S99A, W103F, A104P
VL: B1 VL with I91F, M92G, E93A, P94T, V96I
notes: as for B1
B17: PHS102.YT6D (antibody, human IgG1, kappa, N297A, V domains shown)
VH: B1 VH with E30S, S32G, I54L, L57R, H59M, F103W
VL: B1 VL with E93S, V96P
B18: PHS102.YP7G (antibody, human IgG1, kappa, N297A, V domains shown)
VH: B1 VH with E30D, S32T, I54A, T55N, L57M, H59R, T69M
VL: B1 VL with I91G, M92S, E93T, P94W, V96L
notes: as for B1

The binders below were run against PD-L1 on PD-L1-presenting U2OS bioassay cells (UniProt Q9NZQ7 19-290) (assay: cell-based or functional assay).
Sequence of PD-L1 on PD-L1-presenting U2OS bioassay cells (Q9NZQ7 19-290): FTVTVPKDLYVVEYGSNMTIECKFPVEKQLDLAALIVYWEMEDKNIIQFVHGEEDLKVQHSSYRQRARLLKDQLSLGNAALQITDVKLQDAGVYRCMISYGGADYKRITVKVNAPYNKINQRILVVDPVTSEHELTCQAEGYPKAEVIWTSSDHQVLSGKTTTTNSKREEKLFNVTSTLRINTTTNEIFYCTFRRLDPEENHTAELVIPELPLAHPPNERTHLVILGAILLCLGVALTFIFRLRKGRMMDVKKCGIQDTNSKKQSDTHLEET
For B1, the “IC50, blocking PD-1/PD-L1 signaling (PathHunter PD-1 Signaling Bioassay, U2OS PD-L1 cells + Jurkat PD-1 signaling cells)” value (“IC50, blocking PD-1/PD-L1 signaling” below) was 3.56 nM.
B2 was tested, and the “IC50, blocking PD-1/PD-L1 signaling” value was 3.74 nM.
With B3 the “IC50, blocking PD-1/PD-L1 signaling” value was 3.18 nM.
With B4 the “IC50, blocking PD-1/PD-L1 signaling” value was 4.87 nM.
For B5, the “IC50, blocking PD-1/PD-L1 signaling” value was 2.47 nM.
With B6 the “IC50, blocking PD-1/PD-L1 signaling” value was 6.07 nM.
In the case of B7, the “IC50, blocking PD-1/PD-L1 signaling” value is reported as 4.22 nM.
In the case of B8, the “IC50, blocking PD-1/PD-L1 signaling” value is reported as 3.48 nM.

Each binder was assayed against T1, IL10Rα-Fc fusion protein (assay: ELISA, IL10Rα-Fc immobilised (1 µg/mL)).
Experimental: (§1) The wells were washed with wash solution (0.05% Tween20 in imidazole-buffered saline) and blocked with 1% BSA. […] After incubation at 37° C. for 1 hr, the wells were washed with wash solution. Peroxidase-conjugated Goat anti-human kappa Light chain antibody (Sigma) was applied to each well at 37° C. for 1 h incubation. […] After washing, the wells were developed with TMB substrate for 5-10 min at RT and then stopped with 1 N HCl. Thereafter, absorbance was measured at 450 nm and 650 nm. EC50 and IC50 values were calculated using GraphPad Prism7.
An EC50 of 66.3 nM was found for B9 in this work.
An EC50 of 87.2 nM was found for B10 in this work.
An EC50 of 37.5 nM was found for B11 in this work.
An EC50 of 94.3 nM was found for B7 in this work.
An EC50 of 25.9 nM was found for B12 in this work.

Each binder was assayed against T2, recombinant cynomolgus PD-L1 (cynomolgus monkey, UniProt Q9NZQ7 19-238 (human entry)) (assay: ELISA, cynomolgus PD-L1 immobilised (1 µg/mL)).
T2 construct: also called cynoPD-L1; Cynomolgus PD-L1.ECD
T2 sequence (Q9NZQ7 other isoform, or with tags, fused parts or gaps limits assumed): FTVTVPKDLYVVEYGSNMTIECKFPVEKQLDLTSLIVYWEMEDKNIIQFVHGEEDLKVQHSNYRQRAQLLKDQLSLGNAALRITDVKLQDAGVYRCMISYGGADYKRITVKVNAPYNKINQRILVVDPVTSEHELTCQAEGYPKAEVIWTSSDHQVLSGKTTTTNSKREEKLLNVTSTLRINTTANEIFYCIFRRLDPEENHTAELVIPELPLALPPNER
Experimental: as §1
An EC50 of 0.14 nM was found for B13 in this work.
An EC50 of 0.216 nM was found for B3 in this work.

These binders were tested against T3, recombinant human PD-L1-mFc fusion protein (human, UniProt Q9NZQ7 19-238) (assay: competition ELISA, PD-L1 immobilised, competitor biotin-PD-1-Fc (30 µg/mL)).
T3 construct: also called hPD-L1; huPD-L1
T3 sequence (Q9NZQ7 19-238): as the sequence (Q9NZQ7 other isoform, or with tags, fused parts or gaps limits assumed) above, with T33A, S34A, N62S, Q68R, R82Q, L173F, A185T, I192T, L215H counted along it
Experimental: To test the competition activity, serial dilutions of anti-PD-L1 or anti-PD-L1/IL10 fusion proteins were added.
A recombinant human PD-L1-mFc fusion protein (1 μg/mL), recombinant cynomolgus PD-L1 (1 μg/mL; Sino Biological), or an IL10Rα-Fc fusion protein (1 μg/mL, R&D Systems) were immobilized on 96 well microtiter plate at a concentration of 1 μg/ml in Coating Solution (SeraCare) overnight at 4° C. The wells were washed with wash solution (0.05% Tween20 in imidazole-buffered saline) and blocked with 1% BSA. Serial dilutions of anti-PD-L1 or anti-PD-L1/IL10 fusion proteins were added to wells. After incubation at 37° C. for 1 hr, the wells were washed with wash solution. Peroxidase-conjugated Goat anti-human kappa Light chain antibody (Sigma) was applied to each well at 37° C. for 1 h incubation. […] After washing, the wells were developed with TMB substrate for 5-10 min at RT and then stopped with 1 N HCl. Thereafter, absorbance was measured at 450 nm and 650 nm. EC50 and IC50 values were calculated using GraphPad Prism7.
An IC50 of 1.2 nM was found for B9 in this work.
An IC50 of 38900 nM was found for B14 in this work.
An IC50 of 0.239 nM was found for B13 in this work.
An IC50 of 0.124 nM was found for B10 in this work.
An IC50 of 0.188 nM was found for B11 in this work.
An IC50 of 0.182 nM was found for B3 in this work.
An IC50 of 0.061 nM was found for B7 in this work.

What follows are binders tested against T3, recombinant human PD-L1-mFc fusion … (assay: ELISA, human PD-L1-mFc immobilised (1 µg/mL), anti-human kappa-HRP detection).
Experimental: as §1
An EC50 of 0.164 nM was found for B9 in this work.
An EC50 of 0.204 nM was found for B14 in this work.
An EC50 of 0.0865 nM was found for B10 in this work.
An EC50 of 0.121 nM was found for B11 in this work.
An EC50 of 0.0784 nM was found for B3 in this work.
An EC50 of 0.0798 nM was found for B7 in this work.

What follows are binders tested against T4, recombinant human PD-L1-His (human, UniProt Q9NZQ7 19-238) (assay: BLI (Octet RED96), antibody captured on AHC biosensor, PD-L1-His in solution, 1:1 model;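 also: rates obtained by 1:1 Langmuir fitting of the binding response, using a 2.5 min association phase then a 5 min dissociation phase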).
T4 construct: Analyte of the BLI assay; also called hPD-L1
T4 sequence (Q9NZQ7 19-238): as the sequence (Q9NZQ7 other isoform, or with tags, fused parts or gaps limits assumed) above, with T33A, S34A, N62S, Q68R, R82Q, L173F, A185T, I192T, L215H counted along it
Experimental: Rate constants were calculated by curve fitting analyses (1:1 Langmuir model) of binding response with a 2.5-minute association and 5-minute dissociation interaction time.
A Kd of 1.88 nM, a koff of 0.000542 s⁻¹ and a kon of 288000 M⁻¹ s⁻¹ were found for B1 in this work.
A Kd of 2.03 nM, a koff of 0.000653 s⁻¹ and a kon of 321000 M⁻¹ s⁻¹ were found for B2 in this work.
A Kd of 1.92 nM, a koff of 0.00067 s⁻¹ and a kon of 350000 M⁻¹ s⁻¹ were found for B15 in this work.
A Kd of 1.84 nM, a koff of 0.000615 s⁻¹ and a kon of 334000 M⁻¹ s⁻¹ were found for B16 in this work.
A Kd of 2.16 nM, a koff of 0.000713 s⁻¹ and a kon of 330000 M⁻¹ s⁻¹ were found for B17 in this work.
A Kd of 14.4 nM, a koff of 0.00679 s⁻¹ and a kon of 473000 M⁻¹ s⁻¹ were found for B3 in this work.
A Kd of 1.99 nM, a koff of 0.000603 s⁻¹ and a kon of 303000 M⁻¹ s⁻¹ were found for B6 in this work.
A Kd of 5.51 nM, a koff of 0.00136 s⁻¹ and a kon of 247000 M⁻¹ s⁻¹ were found for B18 in this work.
A Kd of 6.16 nM, a koff of 0.00125 s⁻¹ and a kon of 203000 M⁻¹ s⁻¹ were found for B8 in this work.
